This note sets out measurements from PMC4807051, “Determinants of Cofactor Specificity for the Glucose-6-Phosphate Dehydrogenase from Escherichia coli: Simulation, Kinetics and Evolutionary Studies” (PLoS ONE, 2016).

In data set [1] the test system is T1, NC(=O)c1ccc[n+]([C@@H]2O[C@H](COP(=O)(O)OP(=O)(O)OC[C@H]3O[C@@H](n4cnc5c(N)ncnc54)[C@H](O)[C@@H]3O)[C@@H](O)[C@H]2O)c1.
T1 construct: full length; N-terminal 6xHis tag cut by TEV protease (Gly-His left before Met1); plasmid pET-TEV-EcG6PDH from pETG6PDH
Briefly: purified protein. The following applies: 25°C, apparent. It is filed as biochemical, Escherichia coli.

Data set [2] has as its system T2, NC(=O)c1ccc[n+]([C@@H]2O[C@H](COP(=O)(O)OP(=O)(O)OC[C@H]3O[C@@H](n4cnc5c(N)ncnc54)[C@H](OP(=O)(O)O)[C@@H]3O)[C@@H](O)[C@H]2O)c1.
T2 construct: full length; N-terminal 6xHis tag cut by TEV protease (Gly-His left before Met1); plasmid pET-TEV-EcG6PDH from pETG6PDH
Description: purified protein. It is filed as biochemical, Escherichia coli. The following applies: 25°C, apparent.

Turning to “EcG6PDH; glucose-6-phosphate dehydrogenase from Escherichia coli (Escherichia coli K-12; K18T)”, in data set [1] (near-saturating G6P (15 mM)), the Km is 8.352 ± 0.307 mM, the kcat is 298 ± 4 s⁻¹ and the kcat/Km came out at 30000 ± 1000 M⁻¹ s⁻¹. In data set [2] (near-saturating G6P (15 mM)), the Km was 0.243 ± 0.0053 mM, the kcat was determined as 282 ± 1 s⁻¹ and the kcat/Km is 1.1e+06 ± 30000 M⁻¹ s⁻¹.

“EcG6PDH; glucose-6-phosphate dehydrogenase from Escherichia coli (Escherichia coli K-12; K18A/R50A)”: in data set [1] (near-saturating G6P (40 mM)), the Km turned out to be 11.736 ± 0.804 mM, the kcat worked out at 165 ± 4 s⁻¹ and the kcat/Km worked out at 10000 ± 700 M⁻¹ s⁻¹. Further, in data set [2] (near-saturating G6P (40 mM)), the Km came to 17.696 ± 1.453 mM, the kcat came to 185 ± 7 s⁻¹ and the kcat/Km turned out to be 10000 ± 900 M⁻¹ s⁻¹.

For the substance “EcG6PDH; glucose-6-phosphate dehydrogenase from Escherichia coli (Escherichia coli K-12; R50A)”, in data set [1] (near-saturating G6P (50 mM)), the Km is 14.662 ± 2.176 mM, the kcat was 171 ± 10 s⁻¹ and the kcat/Km was determined as 10000 ± 1000 M⁻¹ s⁻¹. Besides, in data set [2] (near-saturating G6P (50 mM)), the Km amounted to 0.382 ± 0.048 mM, the kcat came to 189 ± 5 s⁻¹ and the kcat/Km was determined as 500000 ± 60000 M⁻¹ s⁻¹.

For “EcG6PDH; glucose-6-phosphate dehydrogenase from Escherichia coli (Escherichia coli K-12; K18A)”, in data set [1] (near-saturating G6P (40 mM)), the Km was 2.477 ± 0.26 mM, the kcat amounted to 109 ± 2 s⁻¹ and the kcat/Km amounted to 40000 ± 4000 M⁻¹ s⁻¹. Besides, in data set [2] (near-saturating G6P (40 mM)), the Michaelis constant (Km) stood at 0.099 ± 0.003 mM, the kcat turned out to be 143 ± 1 s⁻¹ and the kcat/Km is 1.4e+06 ± 40000 M⁻¹ s⁻¹.

Regarding “EcG6PDH; glucose-6-phosphate dehydrogenase from Escherichia coli (Escherichia coli K-12)”, in data set [1] (near-saturating G6P), the Km was determined as 5.09 ± 0.4 mM, the kcat turned out to be 288 ± 5 s⁻¹ and the kcat/Km came to 60000 ± 4000 M⁻¹ s⁻¹. Moreover, in data set [2] (near-saturating G6P), the Km is 0.0075 ± 0.0008 mM, the kcat is 174 ± 2 s⁻¹ and the kcat/Km was determined as 2.32e+07 ± 2.4e+06 M⁻¹ s⁻¹.
